From patent publication US11447754B2, “In vitro methods of chemical conversion using non-stereospecific glutathione lyases” (WISCONSIN ALUMNI RESEARCH FOUNDATION, priority 2017, dated 2022)

B1: NaGSTNu: Nu-class glutathione S-transferase from Novosphingobium aromaticivorans DSM 12444 (Saro_2595), SEQ ID NO:18; non-stereospecific glutathione lyase (protein)
chain: MSSEYVPPKVWKWDKANGGAFASVNRPVAGPTSERELPVGKHPFQVYSLGTPNGQKATIMLEELLQLGFSEAEYDAWLIKIFEGDQFTSGFVDINPNSKIPAMVDRSGPEPFRVFESGAILMHLAEKFGVFLPTSGPARAECLSWLFWQVGSAPFIGGGFGHFYNYAPIKIEYAIDRYAMETKRLFDVANRRLAESRYLAGDEYTIADLATYTWFGNIYRGEAYGEAATFLSMHEYEHVGRWVGEIDARPGVLRGRLVNSSKGLAERHDASDFDALPPESLQAIVKGF
modifications: Novosphingobium aromaticivorans
notes: non-stereospecific glutathione lyase
B2: BaeA: heterodimeric β-aryl etherase of Saro_2872 (SEQ ID NO:40) and Saro_2873 (SEQ ID NO:42) from Novosphingobium aromaticivorans (protein)
chain 1: MSALLYHGEPNGASLTVLAALAETGLDIECRRIDLLAGERHSLPGIVDPVALDLSIEGEGPVLVIDGEAMTESVFLAQYLDEAAGGVGLQPTDAYARWEMMMWCRQITERLSPAAALLGNLATSQSAIAAIPAEDFAILAARIVSDDLRERWQALNDDAVNAAQVADSETKVAAAVDRCEKQLGDGREWLMGTFSIADLVTYSWLAGMEPLRPAAFADAPLVKAWLARTAARPCVQAALARATISEPLRAWAPGPEINRWG
chain 2: MDEVSLYHWEPNANSGKPMLALMEKGVPFSSHYIDMLQFDQHKPEYLAINPQGTIPAMTHNGQVLTESTAIMEYVNDRFDGPDLMPADAQDRWRVRWWMKFMDQWLGPSFSMIGWSVFVGPMVRQRDPAELAAAIDRIPLPERRTAWRKAINGDFSESEMAESRRRVGLGIAKLEEELGKRPYVGSNQYSLADINIFNSTYSLPISQPDLAGKDRTPNIMRWLKRVYTREAVKKTWAMGKTDLAHRYGLIMAEIEG
modifications: Novosphingobium aromaticivorans

Experiments:
Type in all cases: biochemical
[1] = Kinetics analysis of GS-HPV cleavage (conversion into HPV), β(R)-stereoisomer
Procedure: (§1) Kinetics analysis of GS-HPV cleavage. The Reaction Buffer (RB) consisted of 25 mM Tris-HCl (pH 8.5) and 25 mM NaCl. The β(R)- and β(S)-stereoisomers of GS-HPV were separately generated by incubating racemic MPHPV (0.46 mM) in RB with 5 mM reduced glutathione (GSH) and either 38 μg/mL LigF1 or 36 μg/mL LigE, respectively, for several h. This sample, containing a single GS-HPV stereoisomer, guaiacol, and the unreacted MPHPV stereoisomer, was diluted with RB to achieve the desired concentration of GS-HPV for the time course reaction (0.005, 0.011, 0.022, 0.096, or 0.193 mM). An additional 5 mM GSH (dissolved in RB) was added prior to initiation of each time course. […] Assays were performed at 25° C., and at specified time points, 300 μL of the reaction was removed and combined with 100 μL 1 M HCl (Acros Organics; Geel, Belgium) to stop the reaction before HPLC analysis to quantify HPV formed.
(§2) HPLC analysis. After extracellular aromatics were identified using LC-MS, routine analysis and quantification of aromatics were performed using an Ultra AQ C18 5 μm column (Restek, Bellefonte, Pa.) attached to a System Gold HPLC (Beckman Coulter, Brea, Calif.) with running buffers and chromatography conditions described in FIG. 14. […]

[2] = Kinetics analysis of GS-HPV cleavage (conversion into HPV), β(S)-stereoisomer
Procedure: as §1, §2

[3] = Assays to determine activities and stereospecificities of Saro_2872 and Saro_2873
Procedure: Cell-free protein synthesis. Cell-free protein synthesis was run essentially as previously described (Makino et al. 2014). The Saro_2872 polypeptide contained a His6-tag and a Tev protease recognition site on its N-terminus that were not removed. The Saro_2873 polypeptide was synthesized in its native form. Synthesized polypeptides were not purified from the synthesis reaction mixture; assays for enzymatic activity were performed by adding aliquots directly from the synthesis reaction. Concentrations of the Saro_2872 and Saro_2873 polypeptides in the reaction mixtures were approximated using the intensities of the bands in an SDS-PAGE gel.
0.1 mM racemic (β(S) and β(R)) MPHPV was combined with 5.8 mM glutathione (GSH) in reaction buffer (RB; 25 mM Tris-HCl (pH 8.0) and 25 mM NaCl). […] These 212 μL reactions were incubated at 30° C. for several hours, then analyzed via HPLC.
HPLC analysis. Analysis and quantification of aromatic compounds were performed using an Ultra AQ C18 5 μm column (Restek) attached to a System Gold HPLC (Beckman Coulter) with running buffers and methods described in Example 1. The eluent was analyzed for light absorbance between 191 and 600 nm, and absorbances at 280 nm were used for quantification of aromatic metabolites by comparing peak areas to those of standards.

Molecule	KM with β(R)-GS-HPV, fold higher than with β(S)-GS-HPV [1] [fold]	kcat/KM with the β(S)-isomer, fold higher than with the β(R)-isomer [2] [fold]	conversion of racemic MPHPV into GS-HPV and guaiacol ([3]; both polypeptides combined, ~24 nM each, 30° C.)	reaction with β(S)-MPHPV ([3]; recombinantly generated Saro_2872-Saro_2873 complex)
B1	~5	~4		
B2			half of the MPHPV was converted	did not react
